{"source": "patent US20250262210A1", "about": "(TRUSTEES OF COLUMBIA UNIVERSITY IN THE CITY OF NEW YORK, published 2025)", "target": "T1, RAPH1 (human, UniProt Q70E73 1-1250, limits assumed)", "T1 sequence (looked up)": "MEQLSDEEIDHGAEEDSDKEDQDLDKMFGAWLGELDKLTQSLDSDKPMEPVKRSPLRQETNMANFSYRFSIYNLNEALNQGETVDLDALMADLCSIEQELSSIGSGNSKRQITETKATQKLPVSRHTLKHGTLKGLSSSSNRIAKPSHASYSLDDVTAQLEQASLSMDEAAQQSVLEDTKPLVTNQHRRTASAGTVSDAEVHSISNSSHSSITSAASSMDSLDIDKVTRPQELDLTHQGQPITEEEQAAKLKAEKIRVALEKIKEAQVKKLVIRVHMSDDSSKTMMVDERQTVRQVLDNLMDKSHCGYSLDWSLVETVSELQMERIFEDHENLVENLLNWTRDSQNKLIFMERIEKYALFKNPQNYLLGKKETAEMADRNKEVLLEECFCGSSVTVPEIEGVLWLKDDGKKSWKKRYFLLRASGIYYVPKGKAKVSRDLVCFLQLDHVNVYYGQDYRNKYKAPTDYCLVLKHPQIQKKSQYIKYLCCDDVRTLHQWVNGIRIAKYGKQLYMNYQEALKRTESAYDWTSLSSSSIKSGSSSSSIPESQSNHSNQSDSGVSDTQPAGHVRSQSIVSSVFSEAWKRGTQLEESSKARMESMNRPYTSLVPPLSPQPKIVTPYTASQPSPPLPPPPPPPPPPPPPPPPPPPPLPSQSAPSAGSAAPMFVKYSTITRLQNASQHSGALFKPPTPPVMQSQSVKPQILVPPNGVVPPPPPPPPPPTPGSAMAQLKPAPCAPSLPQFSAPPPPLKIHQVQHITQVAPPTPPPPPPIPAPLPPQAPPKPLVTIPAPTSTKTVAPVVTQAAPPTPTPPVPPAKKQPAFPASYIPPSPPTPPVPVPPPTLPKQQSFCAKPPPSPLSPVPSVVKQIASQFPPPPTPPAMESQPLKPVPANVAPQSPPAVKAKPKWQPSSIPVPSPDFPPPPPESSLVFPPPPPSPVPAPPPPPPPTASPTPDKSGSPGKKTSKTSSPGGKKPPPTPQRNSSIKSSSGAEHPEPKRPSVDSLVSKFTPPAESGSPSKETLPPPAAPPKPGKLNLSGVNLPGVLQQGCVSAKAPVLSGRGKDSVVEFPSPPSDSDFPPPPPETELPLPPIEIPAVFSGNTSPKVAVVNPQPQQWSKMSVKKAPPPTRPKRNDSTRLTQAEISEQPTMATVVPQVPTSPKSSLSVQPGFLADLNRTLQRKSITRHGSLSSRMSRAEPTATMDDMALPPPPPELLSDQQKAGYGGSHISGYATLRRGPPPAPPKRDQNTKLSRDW", "experiment": "IP/MS, LZTR1 R810W-FLAG, U87", "how_it_was_run": "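Gel slices were reduced with 5 mM DTT, alkylated with 11 mM IAA and digested overnight at 37° C. with trypsin. Peptides were analysed on an Orbitrap Fusion Tribrid by LC-MS/MS.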", "data": [{"binder": "LZTR1 R810W-FLAG (other, human, UniProt Q8N653 1-840, looked up, Stably expressed in U87 cells by lentivirus; also called LZTR1-FLAG-R810W; LZTR1 RW; not shown: FLAG tag) MAGPGSTGGQIGAAALAGGARSKVAPSVDFDHSCSDSVEYLTLNFGPFETVHRWRRLPPCDEFVGARRSKHTVVAYKDAIYVFGGDNGKTMLNDLLRFDVKDCSWCRAFTTGTPPAPRYHHSAVVYGSSMFVFGGYTGDIYSNSNLKNKNDLFEYKFATGQWTEWKIEGRLPVARSAHGATVYSDKLWIFAGYDGNARLNDMWTIGLQDRELTCWEEVAQSGEIPPSCCNFPVAVCRDKMFVFSGQSGAKITNNLFQFEFKDKTWTRIPTEHLLRGSPPPPQRRYGHTMVAFDRHLYVFGGAADNTLPNELHCYDVDFQTWEVVQPSSDSEVGGAEVPERACASEEVPTLTYEERVGFKKSRDVFGLDFGTTSAKQPTQPASELPSGRLFHAAAVISDAMYIFGGTVDNNIRSGEMYRFQFSCYPKCTLHEDYGRLWESRQFCDVEFVLGEKEECVQGHVAIVTARSRWLRRKITQARERLAQKLEQEAAPVPREAPGVAAGGARPPLLHVAIREAEARPFEVLMQFLYTDKIKYPRKGHVEDVLLIMDVYKLALSFQLCRLEQLCRQYIEASVDLQNVLVVCESAARLQLSQLKEHCLNFVVKESHFNQVIMMKEFERLSSPLIVEIVRRKQQPPPRTPLDQPVDIGTSLIQDMKAYLEGAGAEFCDITLLLDGHPRPAHKAILAARSSYFEAMFRSFMPEDGQVNISIGEMVPSRQAFESMLRYIYYGEVNMPPEDSLYLFAAPYYYGFYNNRLQAYCKQNLEMNVTVQNVLQILEAADKTQALDMKRHCLHIIVHQFTKVSKLPTLWSLSQQLLLDIIDSLASHISDKQCAELGADI", "values": [{"measurement": "binding result", "value": "binds"}]}]}
